Source: a protein production outcome set (Wang et al. 2014)

Assay: label from the status in PepcDB records

MHRLRNLREDVSDGSLGHGGGGLMYDVVVVGAGPAGSMAAKTAAEQGLKVLLVEKRQEIGTPVRCAEGISRESIEKFFEVDKKWIAAEVTGAKIYAPNKTEIVMSEEMAGNEVGYVLERKIFDRHVARLAAKAGAEVYVKTAMVDFERKDGKVKVKLRRLGEDWEVETKILIGADGVESKIGRKAGIIKTLKLNEVESCAQYLMTGLDIDESYTYFYLGRELAPGGYAWIFPKGNGSANVGIGVLPKMAERTAKEYLDAFIEKEGIEGKIVEFVAGAVPVYGEIETAVADNIMLAGDAAYHADPITGGGIANALSAGYYAGKVAAEAVQKNDFSADFLRRYDELWKNDFGKKLRRNKKLQLKFIDMDDALLNKLAGAIAGKNLREMSVAAIVKELLKAHPKLLWDLKDLFLEHHHHHH
protein production: not failed

MKTDWSHYLSVEMESTISNELSILCGAEVAFLGYSCSGKPYTFGSPSFQAVAERFLNREASSSLQRSVMNAHQQAKIQELCKVYNRMVEEAKTEEAKVKKAAALAETMPVDEDAWWKVDPKEVEDHEEAKKIMEKCEGLYEKLCNEAAARIQRGDAENNNK
protein production: failed

MIKLIVSDLDETLVGPDGNVSEENIEAIKKATQKGVKFVPNTGRGFESVQPLLETLGLKGKANEFVISYNGGVIVENQNFDVIQANAFSFEQATQIFDITKQHLENSTHIYTLNDVYVFNEVEEDNEYIRSRGVRTIRFEHDNLDTLKDEPIFKIITMNPDFNKRKQIKAEVLDKVNFDVNATFSSDRYTEFNLKGVDKGQASLELGRHLGIKADEIMALGDNNNDVAMLKSVGLPVVVSNASASAKANAKYIAKGNYETGVAEAINKFVLGE
protein production: failed

MDPAMSFAEIFTVVVPVFLVIAVGYGTGRRALFDAGGAQALRELTMQLALPAALLLSIWQTPRRVLVEQLPLVGLLAFGLLGVYAVLLGVLRLAGRRPLRRAALFALACVQPQYAFMGTSILGGLFGTAQAAVPIAVAGILVNVVLDPVVLILLGMPEHPASRTAATAAAATSAVRRPALVTVGGGAPGESVEAAAPVAAGDASPEHRPSVLRTVGHALREPFCWGPVLGLILSVGGVGVPKVAGTSLTLLAGAASAAALLYVGVSVSRIGRPKLTPAVWAIALTSVVVLPLLVYGAGLAMASAADAAQAALIVAFPVSPVPLMFAARHGSKADVRTIGSAVVLSLLLSFVTLPLLIELIG
protein production: not failed

SSPQHLLVGGSGWNKIAIINKDTKEIVWEYPLEKGWECNSVAATKAGEILFSYSKGAKMITRDGRELWNIAAPAGCEMQTARILPDGNALVAWCGHPSTILEVNMKGEVLSKTEFETGIERPHAQFRQINKNKKGNYLVPLFATSEVREIAPNGQLLNSVKLSGTPFSSAFLDNGDCLVACGDAHCFVQLNLESNRIVRRVNANDIEGVQLFFVAQLFPLQNGGLYICNWQGHDREAGKGKHPQLVEIDSEGKVVWQLNDKVKFGMISTICPIRE
protein production: not failed

MFYGRYDYPTGKFLWGNLRYQRVSEYNLQTFLNMKNSKLREEQIMSAKRDYYEVLGVSRDADKNTIKKAYRKLAKKYHPDTNQGNAQAAERFKEATEAYNILSDPEKKKMYDQFGHAAFDGSGAAGGAYGGAYSRNGGGTYQYAGPDGTFHEYHFEGNGDMDDFLKNIFGGSFGGFGGATRSSSKGSRSGFSGSGFGRSGFGGTGFSGSGFGGSGFSGSGFGESGSYGNYSQGGADVTAEITVGFDEAAFGCEKVIHLTENNGKAVGKALKVKIPAGIDTGKSIRLRGKGNPGINGGKAGDLLLKVKVASKPGYERKGMDVYTTVRVPFTTAVLGGEAKVETLHGNVLCKINPGTQSGTKIRLRGKGIVSMKDKNQHGDQYVTVQIDVPGNLSEEAKRKLREFEVACKKGQQGVA
protein production: failed

MSHSHSHGHSHEPTNYNRAFIISVALNTGFVVIEVVYGLAANSLALLADAGHNLSDVLGLLLAWGASFLGRRQPTPRRTYGLRRSSILAALLNAVLVLVASGAVAWEAIQRFAQPSPVSGSTIIGVAAVGIAINMGSALMFLSGRERDLNIRGAFIHLVADAAVSLGAVLAGIAIVATGWLWFDPVVSLMIVVVIIVSTWQLFQESLNLVTDAVPAGIEPLAVRTFLAELPGVSSIHDLHIWAMSTTETALTAHLIMPAGNLSDAFLVQVNQQLHDHFGIEHTTIHIETGDPSYPCPLAQENVV
protein production: failed

MIITVASFKGGVGKTTTAVHLSAYLALQGETLLIDGDPNRSATGWGKRGSLPFKVVDERQAAKYAPKYQNIVIDTQARPEDEDLEALADGCDLLVIPSTPDALALDALILTIETLQKLGNNRFRILLTIIPPYPSKDGDEARQLLTTAGLPLFKRGIKRYSAFQKASLNGVVVSEVSDSKAGIAWSDYKATGKEIVEEILILEHHHHHH
protein production: not failed

MIRVLFAFIILLLSVFLGIQLNKDPGYVLIAINNWTIETTLWVSVFGLFFLFFLIYGLVQFCNKITRMPGMVNKWHSRRLAQKAQATTRKGLIEYSEGYWQKAKNHLIQALPNTDTPLLNYLTAARAAQKMGDSKLRDHYLREAQQSMPEAKIAVELTQAQLQLANHQWEQALATLKHLQDLAPRHPYVLKLLMNLYEEIKDWQQLIALLPDLKKNHIISDQAFEQLQKNTYLQAMIDLAKHNQSDGITKLYQTLPKTLVNDTAITAEYARFLIRNQDYDQAEYHLKRCLRKELDNRLIELYSLLPCEENQLLFAESLLKKNPHSAALYLCLGRMCLSRHLWGKAKHYLEQSIELNPTPVAFIELGKLHEKLNDPLSSGSCYKKGLELITKDELS
protein production: failed

MPRPSLRRGEETSGARSLHEIAPPAEKAVRKPLNLLPFRKDTPMTKDSYFHKSRAGVAGAPLFVLLHGTGGDENQFFDFGARLLPQATILSPVGDVSEHGAARFFRRTGEGVYDMVDLERATGKMADFIKANREHYQAGPVIGLGFSNGANILANVLIEQPELFDAAVLMHPLIPFEPKISPAKPTRRVLITAGERDPICPVQLTKALEESLKAQGGTVETVWHPGGHEIRSGEIDAVRGFLAAYGG
protein production: not failed

MTDPLIPVDTYLVDSLPEVWFGAVVFALGMYIVLDGFDFGIGMLYATRTDEHERETFLAAFGPVWDANEVWIVAFGTMLLAAFPRVYSRLLADNYLLALGFVVALVFRGLGPELREQREDERWKRYTDYAFVGGSVFAPLLLGMLAGRWLFAGATLPVVLTGVGLVAVSIVTGAAFLAAKTDSGLASELRSYGVGATVAYLGGVVVLLGTVVATDAGGAASAVLSLPVAAVVALSIVAGLGGSVLARRGRYRAWLASALALPTLLTLLVAVLLYPTVYPPTGLLVREAVVSPLALNLVTVLGFPVLLLVLWYFKFLYGVFSGPIEGEGYGG
protein production: failed

MIAFQALQAISPIDGRYRNKVEVLSRYFSEGSLIRYRVKVEVEYFIALCNELPSLKDVCPPSLEEELRRIYQDFSEKDAVRVKEIEAVTNHDVKAVEYFLKERFEAMGIRDAKEFIHFGLTSQDVNNTAFPMMIREAMTEVYLPALQELVEQLHAYALQWKDVPMLAKTHGQPASPTRLGKEIEVFVYRLRKQIDLLLEVPHSAKFGGATGNFNAHHVAYPDHDWSDFGRRFVTSLGLEREELTTQISNYDNMAALFDACCRINVILIDLCRDFWQYISMEYFKQKIKAGEVGSSAMPHKVNPIDYENAEGNLGIANAIFEHLSRKLPISRLQRDLTDSTVLRNVGTPLAHSLIAVTSIAKGLGKLLLNEAALDRDLQNNYAVVAEAIQTILRREGYPNPYETLKALTRTNETVTAESIASFIEALDIDETVKEEMRRISPSNYVGI
protein production: failed

MTMITFSARLAPFQPETVWTLEAGTLIETRGRIERRFPLSSLTRYSLSLAPDGRRRVLLVVFGRRRLLIPSQSYVGPGRFEDRLAAFSVLARALAAVGADLSPRARFGLARLEARTALTFVMGLLAFGAASTLLFSLTAGMVAVGVDLAARMAFVLILMVAALPWLARPADFDPRDPPADLLP
protein production: failed

MEVDTMETLIRLFVSILIICVLALMIKKSRCLDNEGVIGSSIMGFILLYFCGFKYLILLLSFFILGVLVSRVGLEKKKAKKMDETCRSLKNVLANGLIPILFAILAIFGFNWALIGYISSIAAATSDTFSSELGILSNEKPRLITTFEVVEKGTDGAITIFGTLAGVLGAFLIGLFGYLLFGDIKIVLCGTAGGIAGNLADSLVGALFERKGILNNEHVNLIATIVGGIIGVLIYCTL
protein production: failed
